Laboratory results: patent US20250296971A1, “GASTRIC INHIBITORY PEPTIDE RECEPTOR LIGANDS” (priority 2021, published 2025)
One block for each binder: values may come before it. *1 amine or outer side, *2 acyl side, *3 side chain or, on linkers, in order; H or OH if unused. Bridges are numbered along the chain shown (N, C = ends). Where no end group is shown, it is not given here. [ ]: non-standard residue; d: D form. The star is where a group is joined. (dE)(AGLU) = D-glutamic acid bearing 1-amino-1-deoxy-D-glucitol; dE(AGLU) = D-glutamic acid bearing 1-amino-1-deoxy-D-glucitol; Pro(trans-4-NH2) = O=C([C@@H]1C[C@@H](N[*:3])CN1[*:1])[*:2]; DOTA = O=C(O)CN1CCN(CC(=O)O)CCN(CC(=O)*)CCN(CC(=O)O)CC1; NODAGA = O=C(O)CN1CCN(CC(=O)O)CCN(C(CCC(=O)*)C(=O)O)CC1; 2Lut = 2,6-lutidylidene bridge between two thiols; N(CH2CH2CO)Gly = O=C(CN(CCC(=O)[*:3])[*:1])[*:2]; Trp(5-Br) = N[C@@H](Cc1c[nH]c2ccc(Br)cc12)C(=O)O; Trp(5-Cl) = N[C@@H](Cc1c[nH]c2ccc(Cl)cc12)C(=O)O; Pyridine(2,6-diCH2) = c1cc(C[*:1])nc(C[*:2])c1; APAc = 4-amino-1-carboxymethylpiperidine; mXylylene = c1cc(C[*:1])cc(C[*:2])c1; Glutaryl = O=C(CCCC(=O)[*:2])[*:1]; PEG6 = NCCOCCOCCOCCOCCOCCOCCC(=O)O; AGLU = 1-amino-1-deoxy-D-glucitol; Hyp = O=C(O)[C@@H]1C[C@@H](O)CN1; dGlu(AGLU) = not defined here; hCys = N[C@@H](CCS)C(=O)O; hSer = N[C@@H](CCO)C(=O)O; Ac5c = NC1(C(=O)O)CCCC1; Api = NC1(C(=O)O)CCNCC1; Dab = NCC[C@H](N)C(=O)O; Thp = NC1(C(=O)O)CCOCC1; Nlys = NCCCCNCC(=O)O

Biological target: human Gastric Inhibitory Peptide Receptor (human) (UniProt P48546)
Sequence (P48546 22-466 limits assumed): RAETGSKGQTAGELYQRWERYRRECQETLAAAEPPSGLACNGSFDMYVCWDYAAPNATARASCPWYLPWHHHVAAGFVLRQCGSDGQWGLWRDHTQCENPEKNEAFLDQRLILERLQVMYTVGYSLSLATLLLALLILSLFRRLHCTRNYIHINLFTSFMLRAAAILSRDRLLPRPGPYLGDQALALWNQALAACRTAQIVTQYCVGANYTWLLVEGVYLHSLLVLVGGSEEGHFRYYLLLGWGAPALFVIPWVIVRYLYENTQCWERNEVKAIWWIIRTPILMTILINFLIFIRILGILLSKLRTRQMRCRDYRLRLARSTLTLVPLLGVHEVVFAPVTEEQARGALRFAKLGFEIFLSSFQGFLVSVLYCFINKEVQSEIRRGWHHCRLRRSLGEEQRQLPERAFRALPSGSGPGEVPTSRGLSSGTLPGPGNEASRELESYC
Assay: FACS competition with GIP-057 on CHO-K1-hGIPR cells; pIC50 category A: >8.0

pIC50: > 8 pic50
Binder: Ac-DW[Trp(5-Cl)][Hyp]E[dL][hCys][Thp]LIC-NH2 (linker 7-11 via Pyridine(2,6-diCH2)) [Ac-Asp-Trp-5Clw-Hyp-Glu-leu-[Hcy(2Lut)-Thp-Leu-Ile-Cys]-NH2]

pIC50: > 8 pic50
B1: HO-Succinyl-Trp-5Clw-Pro-Glu-leu-[Cys(3MeBn)-Thp-Leu-Ile-Cys]-NH2 (peptide)
peptide: W[Trp(5-Cl)]PE[dL]C[Thp]LIC-NH2
modifications: linker 6-10 via mXylylene; not fully specified (N-terminus); printed as HO-Succinyl-Trp-5Clw-Pro-Glu-leu-[Cys(3MeBn)-Thp-Leu-Ile-Cys]-NH2

pIC50: > 8 pic50
B2: DOTA-O2Oc-glu(AGLU)-Asp-Trp-5Clw-Tap-Glu-leu-[Cys(2Lut)-Thp-Leu-Ile-Cys]-APAc-glu(AGLU)-NH2 (peptide)
peptide: DW[Trp(5-Cl)][Pro(trans-4-NH2)]E[dL]C[Thp]LIC-{APAc-(dE)(AGLU)-NH2}
modifications: linker 7-11 via Pyridine(2,6-diCH2); not fully specified (N-terminus); printed as DOTA-O2Oc-glu(AGLU)-Asp-Trp-5Clw-Tap-Glu-leu-[Cys(2Lut)-Thp-Leu-Ile-Cys]-APAc-glu(AGLU)-NH2

pIC50: > 8 pic50
Binder: Ac-DW[Trp(5-Cl)][Hyp]E[dL]C[Ac5c]LIC-NH2 (linker 7-11 via Pyridine(2,6-diCH2)) [Ac-Asp-Trp-5Clw-Hyp-Glu-leu-[Cys(2Lut)-Eca-Leu-Ile-Cys]-NH2]

pIC50: > 8 pic50
Binder: {AGLU-Glutaryl}-DW[Trp(5-Cl)][Pro(trans-4-NH2)]E[dL]C[Api](NODAGA)LIC-{APAc-dE(AGLU)-NH2} (linker 7-11 via Pyridine(2,6-diCH2)) [AGLU-Glutar-Asp-Trp-5Clw-Tap-Glu-leu-[Cys(2Lut)-Apc(NODAGA)-Leu-Ile-Cys]-APAc-glu(AGLU)-NH2]

pIC50: > 8 pic50
Binder: {AGLU-Glutaryl}-DW[Trp(5-Cl)][Pro(trans-4-NH2)]E[dL]C[Dab](DOTA)LIC-{APAc-dE(AGLU)-NH2} (linker 7-11 via Pyridine(2,6-diCH2)) [AGLU-Glutar-Asp-Trp-5Clw-Tap-Glu-leu-[Cys(2Lut)-Dab(DOTA)-Leu-Ile-Cys]-APAc-glu(AGLU)-NH2]

pIC50: > 8 pic50
Binder: {AGLU-Glutaryl}-[hSer]W[Trp(5-Br)][Pro(trans-4-NH2)]E[dL]C[Api](DOTA)LIC-{APAc-dE(AGLU)-NH2} (linker 7-11 via Pyridine(2,6-diCH2)) [AGLU-Glutar-Hse-Trp-5Brw-Tap-Glu-leu-[Cys(2Lut)-Apc(DOTA)-Leu-Ile-Cys]-APAc-glu(AGLU)-NH2]

pIC50: > 8 pic50
B3: Ac-Glu-Trp-5Clw-Hyp-Glu-leu-[Cys(2Lut)-Thp-Leu-Ile-Cys]-NH2 (peptide)
peptide: Ac-EW[Trp(5-Cl)][Hyp]E[dL]C[Thp]LIC-NH2
modifications: linker 7-11 via Pyridine(2,6-diCH2)
SMILES: CC[C@H](C)[C@@H]1NC(=O)[C@H](CC(C)C)NC(=O)C2(CCOCC2)NC(=O)[C@@H](NC(=O)[C@@H](CC(C)C)NC(=O)[C@H](CCC(=O)O)NC(=O)[C@@H]2C[C@@H](O)CN2C(=O)[C@H](Cc2c[nH]c3ccc(Cl)cc23)NC(=O)[C@H](Cc2c[nH]c3ccccc23)NC(=O)[C@H](CCC(=O)O)NC(C)=O)CSCc2cccc(n2)CSC[C@@H](C(N)=O)NC1=O

pIC50: > 8 pic50
Binder: Ac-DW[Trp(5-Cl)][Hyp]E[dL]C[Thp]LIC-OH (linker 7-11 via Pyridine(2,6-diCH2)) [Ac-Asp-Trp-5Clw-Hyp-Glu-leu-[Cys(2Lut)-Thp-Leu-Ile-Cys]-OH]

pIC50: > 8 pic50
Binder: Ac-DW[Trp(5-Cl)][Hyp]E[dL]C[Thp]LI[hCys]-NH2 (linker 7-11 via Pyridine(2,6-diCH2)) [Ac-Asp-Trp-5Clw-Hyp-Glu-leu-[Cys(2Lut)-Thp-Leu-Ile-Hcy]-NH2]

pIC50: > 8 pic50
Binder: {DOTA-dE(AGLU)}-DW[Trp(5-Cl)][Pro(trans-4-NH2)]E[dL]C[Thp]LIC-{APAc-dE(AGLU)-NH2} (linker 7-11 via Pyridine(2,6-diCH2)) [DOTA-glu(AGLU)-Asp-Trp-5Clw-Tap-Glu-leu-[Cys(2Lut)-Thp-Leu-Ile-Cys]-APAc-glu(AGLU)-NH2]

pIC50: > 8 pic50
Binder: Ac-DW[Trp(5-Cl)][Hyp]E[dL]C[Thp]LIC-NH2 (linker 7-11 via Pyridine(2,6-diCH2)) [Ac-Asp-Trp-5Clw-Hyp-Glu-leu-[Cys(2Lut)-Thp-Leu-Ile-Cys]-NH2]

pIC50: > 8 pic50
Binder: Ac-DW[Trp(5-Cl)][Nlys]E[dL]C[Thp]LIC-NH2 (linker 7-11 via Pyridine(2,6-diCH2)) [Ac-Asp-Trp-5Clw-Nlys-Glu-leu-[Cys(2Lut)-Thp-Leu-Ile-Cys]-NH2]

pIC50: > 8 pic50
Binder: Ac-DW[Trp(5-Cl)][Hyp]E[dL][hCys][Thp]LI[hCys]-NH2 (linker 7-11 via Pyridine(2,6-diCH2)) [Ac-Asp-Trp-5Clw-Hyp-Glu-leu-[Hcy(2Lut)-Thp-Leu-Ile-Hcy]-NH2]

pIC50: > 8 pic50
Binder: Ac-DW[Trp(5-Cl)][N(CH2CH2CO)Gly]E[dL]C[Thp]LIC-NH2 (linker 7-11 via Pyridine(2,6-diCH2)) [Ac-Asp-Trp-5Clw-Nglu-Glu-leu-[Cys(2Lut)-Thp-Leu-Ile-Cys]-NH2]

pIC50: > 8 pic50
Binder: W[Trp(5-Cl)][Pro(trans-4-NH2)]E[dL]C[Api](DOTA)LIC-{APAc-dE(AGLU)-NH2} (linker 6-10 via 2Lut; not fully specified (N-terminus)) [HO-Succinyl-Trp-5Clw-Tap-Glu-leu-[Cys(2Lut)-Apc(DOTA)-Leu-Ile-Cys]-APAc-glu(AGLU)-NH2]

pIC50: > 8 pic50
Binder: {DOTA-dGlu(AGLU)-PEG6}-DW[Trp(5-Cl)][Pro(trans-4-NH2)]E[dL]C[Thp]LIC-{APAc-dGlu(AGLU)-NH2} (linker 7-11 via 2Lut; reading uncertain) [DOTA-glu(AGLU)-PEG6-Asp-Trp-5Clw-Tap-Glu-leu-[Cys(2Lut)-Thp-Leu-Ile-Cys]-APAc-glu(AGLU)-NH2]
